{"source": "paper PMC10289200", "about": "“Detection of Arc/Arg3.1 oligomers in rat brain: constitutive and synaptic activity-evoked dimer expression in vivo” (Frontiers in Molecular Neuroscience, 2023)", "key": {"[1]": {"biological_target": "the molecule itself", "assay": "cross-linking; DSG-crosslinked pooled rat DG (1, 2, 4 h post-HFS), then Arc immunoprecipitation (rabbit anti-Arc antibody or ALFA-H11 nanobody) and Arc immunoblot"}, "[2]": {"biological_target": "the molecule itself", "assay": "cross-linking; in situ/ex vivo, 0.5 mM DSG, 30 min, 37 °C, PBS pH 7.4, ~0.5 mm slices of rat DG, CA or cortex (naive, HFS-LTP or BDNF-LTP); lysis in 1% Triton X-100; SDS-PAGE with DTT and immunoblot"}, "[3]": {"biological_target": "the molecule itself", "assay": "cross-linking + affinity purification with mass spectrometry; in situ, 0.1 mM DSG, 10 min, 4 °C, mTq2-Arc transfected HEK293FT cells; immunoblot, Arc immunoprecipitation and LC-MS/MS of gel-excised bands (~75, 150, 250, >250 kDa)"}, "[4]": {"biological_target": "the molecule itself", "assay": "SDS-PAGE and immunoblot without cross-linker; non-crosslinked (DMSO only) cells or tissue, boiled in Laemmli buffer with DTT; species that resist SDS"}, "[5]": {"biological_target": "the molecule itself", "assay": "cross-linking; in situ, 0.2 mM DSG, 10 min, 4 °C, in PBS pH 7.4, harvested SH-SY5Y cells (untreated or carbachol) or cortical neuronal cultures (untreated or BDNF); quenched with 50 mM Tris-HCl; SDS-PAGE with DTT and immunoblot"}, "[6]": {"biological_target": "T1, DJ-1, endogenous in SH-SY5Y cells (human (endogenous in SH-SY5Y)), Q99497", "T1 chain": "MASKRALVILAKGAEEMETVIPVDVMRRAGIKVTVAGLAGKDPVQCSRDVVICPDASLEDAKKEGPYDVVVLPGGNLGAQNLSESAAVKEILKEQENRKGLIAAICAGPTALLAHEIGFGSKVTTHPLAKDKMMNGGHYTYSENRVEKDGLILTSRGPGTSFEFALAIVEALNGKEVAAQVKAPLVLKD", "assay": "cross-linking; in situ, 0.2 mM DSG, 10 min, 4 °C, in PBS pH 7.4, harvested SH-SY5Y cells (untreated or carbachol) or cortical neuronal cultures (untreated or BDNF); quenched with 50 mM Tris-HCl; SDS-PAGE with DTT and immunoblot", "settings": "remark: other sources report otherwise"}, "[7]": {"biological_target": "the molecule itself", "assay": "cross-linking; thiol-cleavable DSP on rat CA tissue; non-reducing SDS-PAGE and immunoblot; crosslinks reversed by DTT"}}, "data": [{"binder": "Arc, endogenous in rat brain tissue (dentate gyrus, hippocampal CA, cortex) (natural protein, rat (endogenous in rat brain tissue), UniProt Q63053 1-396, looked up, Arc (Arg3.1), endogenous in adult Sprague-Dawley rat brain tissue; monomer at ~55 kDa on SDS-PAGE; also called Arg3.1; endogenous Arc; source: endogenous, rat brain tissue (DG, CA, cortex), in tissue / lysate) MELDHMTTGGLHAYPAPRGGPAAKPNVILQIGKCRAEMLEHVRRTHRHLLTEVSKQVERELKGLHRSVGKLENNLDGYVPTGDSQRWKKSIKACLCRCQETIANLERWVKREMHVWREVFYRLERWADRLESMGGKYPVGSEPARHTVSVGVGGPEPYCQEADGYDYTVSPYAITPPPAAGELPEQESVGAQQYQSWVPGEDGQPSPGVDTQIFEDPREFLSHLEEYLRQVGGSEEYWLSQIQNHMNGPAKKWWEFKQGSVKNWVEFKKEFLQYSEGTLSREAIQRELDLPQKQGEPLDQFLWRKRDLYQTLYVDAEEEEIIQYVVGTLQPKFKRFLRHPLPKTLEQLIQRGMEVQDGLEQAAEPSVTPLPTEDETEALTPALTSESVASDRTQPE", "values": [{"measurement": "stoichiometry N", "setting": "[1]", "value": 2}, {"measurement": "ratio of dimer:monomer in the DSG lane (BDNF-LTP, 2 h)", "setting": "[2]", "value": 0.56}, {"measurement": "ratio of dimer:monomer in the DSG lane (HFS-LTP, 2 h)", "setting": "[2]", "value": 0.4}]}, {"binder": "Arc N-terminally fused to monomeric Turquoise 2 (mTq2-Arc) (natural protein, UniProt Q63053 1-396, looked up, Arc; fusion monomer at ~75 kDa on SDS-PAGE; The crosslinking in HEK293FT cells follows Eriksen et al. (2021); the construct may be described there; also called ectopic Arc; source: HEK293FT, transfected (CMV promoter), in cells / lysate; not shown: monomeric Turquoise 2 (mTq2), N-terminal, kept) MELDHMTTGGLHAYPAPRGGPAAKPNVILQIGKCRAEMLEHVRRTHRHLLTEVSKQVERELKGLHRSVGKLENNLDGYVPTGDSQRWKKSIKACLCRCQETIANLERWVKREMHVWREVFYRLERWADRLESMGGKYPVGSEPARHTVSVGVGGPEPYCQEADGYDYTVSPYAITPPPAAGELPEQESVGAQQYQSWVPGEDGQPSPGVDTQIFEDPREFLSHLEEYLRQVGGSEEYWLSQIQNHMNGPAKKWWEFKQGSVKNWVEFKKEFLQYSEGTLSREAIQRELDLPQKQGEPLDQFLWRKRDLYQTLYVDAEEEEIIQYVVGTLQPKFKRFLRHPLPKTLEQLIQRGMEVQDGLEQAAEPSVTPLPTEDETEALTPALTSESVASDRTQPE", "values": [{"measurement": "stoichiometry N", "setting": "[3]", "value": 2}]}, {"binder": "rArc-StrepII-HA, stably expressed in SH-SY5Y cells (natural protein, UniProt Q63053 1-396, looked up, Arc printed as rArc in the cassette CMV::rArc-StrepII-HA; the species is not spelt out; monomer at ~60 kDa on SDS-PAGE; also called tagged-Arc; exogenous Arc) MELDHMTTGGLHAYPAPRGGPAAKPNVILQIGKCRAEMLEHVRRTHRHLLTEVSKQVERELKGLHRSVGKLENNLDGYVPTGDSQRWKKSIKACLCRCQETIANLERWVKREMHVWREVFYRLERWADRLESMGGKYPVGSEPARHTVSVGVGGPEPYCQEADGYDYTVSPYAITPPPAAGELPEQESVGAQQYQSWVPGEDGQPSPGVDTQIFEDPREFLSHLEEYLRQVGGSEEYWLSQIQNHMNGPAKKWWEFKQGSVKNWVEFKKEFLQYSEGTLSREAIQRELDLPQKQGEPLDQFLWRKRDLYQTLYVDAEEEEIIQYVVGTLQPKFKRFLRHPLPKTLEQLIQRGMEVQDGLEQAAEPSVTPLPTEDETEALTPALTSESVASDRTQPE", "values": [{"measurement": "stoichiometry N", "setting": "[4]", "value": 2}]}, {"binder": "Arc, endogenous in primary cortical neuronal cultures (natural protein, UniProt Q63053 1-396, looked up, Arc (Arg3.1), endogenous in primary cortical neurons; also called Arg3.1; source: endogenous, primary cortical neuronal cultures (BDNF 50 ng/mL, 2 h), in cells / lysate) MELDHMTTGGLHAYPAPRGGPAAKPNVILQIGKCRAEMLEHVRRTHRHLLTEVSKQVERELKGLHRSVGKLENNLDGYVPTGDSQRWKKSIKACLCRCQETIANLERWVKREMHVWREVFYRLERWADRLESMGGKYPVGSEPARHTVSVGVGGPEPYCQEADGYDYTVSPYAITPPPAAGELPEQESVGAQQYQSWVPGEDGQPSPGVDTQIFEDPREFLSHLEEYLRQVGGSEEYWLSQIQNHMNGPAKKWWEFKQGSVKNWVEFKKEFLQYSEGTLSREAIQRELDLPQKQGEPLDQFLWRKRDLYQTLYVDAEEEEIIQYVVGTLQPKFKRFLRHPLPKTLEQLIQRGMEVQDGLEQAAEPSVTPLPTEDETEALTPALTSESVASDRTQPE", "values": [{"measurement": "stoichiometry N", "setting": "[5]", "value": 2}]}, {"binder": "DJ-1, endogenous in SH-SY5Y cells, Q99497 1-189 (natural protein) MASKRALVILAKGAEEMETVIPVDVMRRAGIKVTVAGLAGKDPVQCSRDVVICPDASLEDAKKEGPYDVVVLPGGNLGAQNLSESAAVKEILKEQENRKGLIAAICAGPTALLAHEIGFGSKVTTHPLAKDKMMNGGHYTYSENRVEKDGLILTSRGPGTSFEFALAIVEALNGKEVAAQVKAPLVLKD", "values": [{"measurement": "stoichiometry N", "setting": "[6]", "value": 2}]}, {"binder": "Activity-regulated cytoskeleton-associated protein (Arc), endogenous in human SH-SY5Y neuroblastoma cells (natural protein, human (endogenous in SH-SY5Y), UniProt Q7LC44 1-396, looked up, Arc (Arg3.1), endogenous in human SH-SY5Y neuroblastoma cells; monomer at ~50 kDa on SDS-PAGE; also called Arg3.1; endogenous Arc; source: endogenous, SH-SY5Y cells (induced with 100 uM carbachol), in cells / lysate) MELDHRTSGGLHAYPGPRGGQVAKPNVILQIGKCRAEMLEHVRRTHRHLLAEVSKQVERELKGLHRSVGKLESNLDGYVPTSDSQRWKKSIKACLCRCQETIANLERWVKREMHVWREVFYRLERWADRLESTGGKYPVGSESARHTVSVGVGGPESYCHEADGYDYTVSPYAITPPPAAGELPGQEPAEAQQYQPWVPGEDGQPSPGVDTQIFEDPREFLSHLEEYLRQVGGSEEYWLSQIQNHMNGPAKKWWEFKQGSVKNWVEFKKEFLQYSEGTLSREAIQRELDLPQKQGEPLDQFLWRKRDLYQTLYVDADEEEIIQYVVGTLQPKLKRFLRHPLPKTLEQLIQRGMEVQDDLEQAAEPAGPHLPVEDEAETLTPAPNSESVASDRTQPE", "values": [{"measurement": "stoichiometry N", "setting": "[5]", "value": 2}]}, {"binder": "DJ-1, endogenous in rat brain tissue (natural protein, rat (endogenous in rat brain tissue), UniProt O88767 1-189, looked up, DJ-1, endogenous in rat DG, CA and cortical tissue; also called DJ-I; source: endogenous, rat brain tissue (DG, CA, cortex), in tissue / lysate) MASKRALVILAKGAEEMETVIPVDIMRRAGIKVTVAGLAGKDPVQCSRDVVICPDTSLEEAKTQGPYDVVVLPGGNLGAQNLSESALVKEILKEQENRKGLIAAICAGPTALLAHEVGFGCKVTSHPLAKDKMMNGSHYSYSESRVEKDGLILTSRGPGTSFEFALAIVEALSGKDMANQVKAPLVLKD", "values": [{"measurement": "stoichiometry N", "setting": "[7]", "value": 2}]}]}
